Patent publication US20110070184A1, “METHODS AND COMPOSITIONS FOR TREATING ATHEROSCLEROSIS AND RELATED CONDIDTIONS” (CAROLUS THERPEUTICS, INC., priority 2008, published 2011)

T1: CXCR2 (Homo sapiens, UniProt P25025)
T1 construct: expressed in transfected cells
T1 sequence (P25025 1-360): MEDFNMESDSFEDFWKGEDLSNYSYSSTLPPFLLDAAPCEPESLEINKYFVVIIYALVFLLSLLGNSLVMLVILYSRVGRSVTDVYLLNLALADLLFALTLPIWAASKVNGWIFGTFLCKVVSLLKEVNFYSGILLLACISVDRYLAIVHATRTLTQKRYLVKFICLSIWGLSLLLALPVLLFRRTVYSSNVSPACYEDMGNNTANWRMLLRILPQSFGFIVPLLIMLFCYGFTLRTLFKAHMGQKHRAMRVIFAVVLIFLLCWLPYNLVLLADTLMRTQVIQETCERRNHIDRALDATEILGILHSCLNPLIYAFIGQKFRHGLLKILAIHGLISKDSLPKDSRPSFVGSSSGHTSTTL

B1: MIF: Recombinant macrophage migration inhibitory factor, expressed and purified as described (Bernhagen 1993) (protein)
chain: PMFIVNTNVPRASVPDGFLSELTQQLAQATGKPPQYIAVHVVPDQLMAFGGSSEPCALCSLHSIGKIGGAQNRSYSKLLCGLLAERLRISPDRVYINYYDMNAANVGWNNSTFA

What was measured:
[1] = biological target: CXCR4 (Homo sapiens, UniProt P61073); conditions: data not shown
[2] = tested on: primary human monocytes; assay: Transwell chemotaxis of primary monocytes toward MIF; assay type: cell-based
Experimental: (§1) Chemotaxis assays. […] Pore sizes and intervals were 5 μm and 3 h (monocytes), 3 μm and 1.5 h (T cells), and […] and 1 h (neutrophils).

[3] = tested on: primary CD3+ T lymphocytes; assay: Transwell chemotaxis of primary CD3+ T cells toward MIF; assay type: cell-based, human; conditions: primary CD3+ T lymphocytes devoid of CXCR1 and CXCR2
Experimental: as §1

[4] = biological target: T1, CXCR2; assay: CXCR2 internalization assay in HEK293-CXCR2 transfectants (FACS); assay type: cell-based; conditions: stable HEK293 transfectants
Experimental: CXCR internalization assays. […] Internalization was calculated relative to surface expression of buffer-treated cells (100% control) and isotype control staining (0% control): geometric MFI[experimental]−MFI[0% control]/MFI[100% control]−MFI[0% control]×100.

[5] = biological target: T2, CCR5 (Homo sapiens, UniProt P51681); assay: CCR5 internalization in L1.2 CCR5 transfectants; assay type: cell-based; conditions: data not shown
T2 construct: host or cells: L1.2 (mouse pre-B lymphoma) cells

[6] = tested on: primary human monocytes; assay: Arrest of primary monocytes on MIF-pretreated human aortic endothelial cells under flow; assay type: cell-based; conditions: aortic endothelial cells pretreated with recombinant MIF for 2 h
Experimental: Adhesion assays. Arrest of calcein-AM (Molecular Probes)-labeled monocytes, T cells and L1.2 transfectants was quantified in parallel-wall chambers in flow (1.5 dynes/cm^2, 5 min) (Schober, A., et al. (2004) Circulation 109, 380-385; Osterman, G., et al. (2002) Nat. Immunol. 3, 151-158; Weber, C., et al. (1996) J. Cell Biol. 134, 1063-1073).

[7] = tested on: primary human neutrophils; assay: Calcium mobilization in neutrophils (Fluo-4 AM); assay type: cell-based
Source text: (§2) Calcium mobilization. Neutrophils or L1.2 CXCR2 transfectants were labeled with Fluo-4 AM (Molecular Probes).

[8] = biological target: T1, CXCR2; assay: Calcium mobilization in L1.2 CXCR2 transfectants (Fluo-4 AM); assay type: cell-based
Source text: as §2

[9] = tested on: leukocyte adhesion and emigration in postcapillary venules; assay: Cremaster microcirculation model, intravital microscopy; assay type: in vivo, mouse; conditions: MIF injected adjacent to the cremaster muscle
Experimental: Cremaster microcirculation model. […] After 4 h, intravital microscopy (Zeiss Axioplan; 20×) was performed in postcapillary venules (Gregory, J. L., et al. (2004) Arthritis Rheum. 50, 3023-3034; Keane, M. P., et al. (2004) J. Immunol. 172, 2853-2860). Adhesion was measured as leukocytes stationary for more than 30 s, emigration as the number of extravascular leukocytes per field.

[10] = tested on: neutrophil recruitment; assay: Model of acute MIF-induced peritonitis; assay type: in vivo, mouse; conditions: after 4 h, mice with wild-type bone marrow
Experimental: Model of acute peritonitis. […] After 4 h, peritoneal Iavage was performed and Gr-1^+CD115^−F4/80^− neutrophils were quantified by flow cytometry using the relevant conjugated antibodies.

Chain of CXCR4 (P61073 whole entry): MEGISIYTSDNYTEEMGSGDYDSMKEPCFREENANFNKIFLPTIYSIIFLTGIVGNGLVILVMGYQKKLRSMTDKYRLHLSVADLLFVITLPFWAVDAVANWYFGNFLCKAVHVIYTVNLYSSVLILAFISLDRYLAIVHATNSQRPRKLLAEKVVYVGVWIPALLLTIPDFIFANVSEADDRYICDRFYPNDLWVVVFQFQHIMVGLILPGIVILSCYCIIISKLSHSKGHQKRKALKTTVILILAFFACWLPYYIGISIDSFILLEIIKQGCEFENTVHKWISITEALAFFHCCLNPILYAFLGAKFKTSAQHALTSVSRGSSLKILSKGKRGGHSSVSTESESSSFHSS
T2 sequence (P51681 whole entry): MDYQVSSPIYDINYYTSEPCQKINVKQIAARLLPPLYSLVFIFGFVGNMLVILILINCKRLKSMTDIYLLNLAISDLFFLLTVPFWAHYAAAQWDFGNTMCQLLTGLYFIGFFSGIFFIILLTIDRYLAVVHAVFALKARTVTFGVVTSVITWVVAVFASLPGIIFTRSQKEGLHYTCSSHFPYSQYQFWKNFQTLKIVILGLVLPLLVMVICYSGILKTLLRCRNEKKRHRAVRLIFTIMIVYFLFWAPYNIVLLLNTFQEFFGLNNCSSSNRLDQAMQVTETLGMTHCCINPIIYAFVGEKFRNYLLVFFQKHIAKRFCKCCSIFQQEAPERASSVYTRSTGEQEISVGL

| Molecule | specific binding of fluorescein-MIF to CXCR4-bearing Jurkat cells [1] | MIF concentration that induced optimal chemotaxis [2] [nM] | optimum of bell-shaped dose-response curve of induced monocyte migration ([2]; MIF in lower chamber, primary human PBMC-derived monocytes) [ng/mL] | T-cell transmigration [3] | CXCR2 internalization (surface CXCR2 by FACS) [4] | CCR5 internalization [5] | arrest of primary human monocytes under flow conditions [6] | calcium influx [7] | calcium influx [8] | leukocyte adhesion and emigration in postcapillary venules [9] | neutrophil recruitment after intraperitoneal injection [10] |
| --- | --- | --- | --- | --- | --- | --- | --- | --- | --- | --- | --- |
| c1ccc(CNCc2ccc(CN3CCCNCCNCCCNCC3)cc2)nc1 [AMD3465] | inhibited | – | – | – | – | – | – | – | – | – | – |
| B1 | – | 2 to 4 | 25 to 50 | dose-dependently induced transmigration | induced CXCR2 internalization | unable to induce CCR5 internalization | substantially increased the arrest | induced calcium influx | dose-dependently induced calcium influx | marked increase | elicited neutrophil recruitment |
